Data reported in patent US20200179497.

Target: IVIg (Octagam)

B1: pCART203 (protein)
chain: MDDYQRNATEAYAKEVPHQITSVWTKGVTPPEQFTQGEDVIHAPYLAHQGWYDITKAFDGKDNLLCGAATAGNMLHWWFDQNKTEIEAYLSKHPEKQKIIFNNQELFDLKAAIDTKDSQTNSQLFNYFRDKAFPNLSARQLGVMPDLVLDMFINGYYLNVFKTQSTDVNRPYQDKDKRGGIFDAVFTRGDQTTLLTARHDLKNKGLNDISTIIKQELTEGRALALSHTYANVSISHVINLWGADFNAEGNLEAIYVTDSDANASIGMKKYFVGINAHGHVAISAKKIEGENIGAQVLGLFTLSSGKDIWQKLSGGGHHHHHH
With B1 the “cleavage efficacy on SDS-PAGE, fold vs IdeS” value was “a 2 fold increased efficacy compared to IdeS” and the “enzyme concentration at which IgG cleavage is seen on SDS-PAGE” value was “demonstrates IgG cleavage at 0.5 ng/ml (lane 7)”.

B2: BX1001865 (IdeS lacking tag, produced to GMP standard) (protein)
chain: DSFSANQEIRYSEVTPYHVTSVWTKGVTPPANFTQGEDVFHAPYVANQGWYDITKTFNGKDDLLCGAATAGNMLHWWFDQNKDQIKRYLEEHPEKQKINFNGEQMFDVKEAIDTKNHQLDSKLFEYFKEKAFPYLSTKHLGVFPDHVIDMFINGYRLSLTNHGPTPVKEGSKDPRGGIFDAVFTRGDQSKLLTSRHDFKEKNLKEISDLIKKELTEGKALGLSHTYANVRINHVINLWGADFDSNGNLKAIYVTDSDSNASIGMKKYFVGVNSAGKVAISAKEIKEDNIGAQVLGLFTLSTGQDSWNQTN
In the case of B2, the “enzyme concentration at which cleavage starts on SDS-PAGE” value is reported as “IdeS, which starts the cleavage at 0.9 ng/ml (lane 6) and has a dominating scIgG band at 1.9 ng/ml (lane 5)”.

B3: pCART124 (IdeS with additional N terminal methionine and histidine tag) (protein)
chain: MDSFSANQEIRYSEVTPYHVTSVWTKGVTPPANFTQGEDVFHAPYVANQGWYDITKTFNGKDDLLCGAATAGNMLHWWFDQNKDQIKRYLEEHPEKQKINFNGEQMFDVKEAIDTKNHQLDSKLFEYFKEKAFPYLSTKHLGVFPDHVIDMFINGYRLSLTNHGPTPVKEGSKDPRGGIFDAVFTRGDQSKLLTSRHDFKEKNLKEISDLIKKELTEGKALGLSHTYANVRINHVINLWGADFDSNGNLKAIYVTDSDSNASIGMKKYFVGVNSAGKVAISAKEIKEDNIGAQVLGLFTLSTGQDSWNQTNGGGHHHHHH
B3 was tested, and the “enzyme concentration at which cleavage starts on SDS-PAGE” value was “IdeS, which starts the cleavage at 0.9 ng/ml (lane 6) and has a dominating scIgG band at 1.9 ng/ml (lane 5)”.

B4: pCART208 (protein)
chain: MDDYQRNATEAYAKEVPHQITSVWTKGVTPPEQFTQGEDVIHAPYLAHQGWYDITKAFDGKDNLLCGAATAGNMLHWWFDQNKTEIEAYLSKHPEKQKIIIRNQELFDLKAAIDTKDSQTNSQLFNYFRDKAFPNLSARQLGVMPDLVLDMFINGYYLNVFKTQSTDVNRPYQDKDKRGGIFDAVFTRGDQTTLLTARHDLKNKGLNDISTIIKQELTEGRALALSHTYANVSISHVINLWGADFNAEGNLEAIYVTDSDANASIGMKKYFVGINAHGHVAISAKKIEGENIGAQVLGLFTLSSGKDIWQKLSGGGHHHHHH
B4 was tested, and the “cleavage efficacy of the 1st heavy chain on SDS-PAGE, fold vs IdeS” value was “approximately a 4 fold increase in cleavage efficacy of the 1st heavy chain”.
